Columns and labels:
[1] = target: membrane-bound human FcγRIIB on Raji cells (human) (UniProt P31994); experiment: FACS on Raji cells (FACS021), constant aggregated IgG; competitor SM101 IMP 0.25 µg/µL
[2] = target: membrane-bound human FcγRIIB on Raji cells (human) (UniProt P31994); experiment: FACS on Raji cells (FACS021), constant aggregated IgG; competitor SM101 IMP 0.0078 µg/µL
[3] = target: membrane-bound human FcγRIIB on Raji cells (human) (UniProt P31994); experiment: FACS on Raji cells (FACS021), constant aggregated IgG; competitor SM101 IMP 0.03125 µg/µL
[4] = target: membrane-bound human FcγRIIB on Raji cells (human) (UniProt P31994); experiment: FACS on Raji cells, aggregated Beriglobin at 5.0 (µg/µL); mean of three batches
[5] = target: membrane-bound human FcγRIIB on Raji cells (human) (UniProt P31994); experiment: FACS on Raji cells (FACS021), constant aggregated IgG; competitor SM101 Ref. Std. 0.125 µg/µL
[6] = target: membrane-bound human FcγRIIB on Raji cells (human) (UniProt P31994); experiment: FACS on Raji cells (FACS021), constant aggregated IgG; competitor SM101 Ref. Std. 0.0078 µg/µL
[7] = target: membrane-bound human FcγRIIB on Raji cells (human) (UniProt P31994); experiment: FACS on viable Raji cells (FcγRIIB) with aggregated Beriglobin and no SM101; detected with anti-human IgG(H+L)-PE secondary antibody
[8] = target: membrane-bound human FcγRIIB on Raji cells (human) (UniProt P31994); experiment: FACS: 0.1E6 Raji cells (FcγRIIB) with 2.5 µg aggregated Beriglobin at the stated pH; 1/200 anti-human IgG(H+L)-PE; secondary antibody alone in this panel 173
[9] = target: membrane-bound human FcγRIIB on Raji cells (human) (UniProt P31994); experiment: FACS: 0.1E6 Raji cells (FcγRIIB) with 2.5 µg aggregated Beriglobin at the stated pH; 1/200 anti-human IgG(H+L)-PE; secondary antibody alone in this panel 173; pH 6.7
[10] = target: membrane-bound human FcγRIIB on Raji cells (human) (UniProt P31994); experiment: FACS: 0.1E6 Raji cells (FcγRIIB) with 2.5 µg aggregated Beriglobin at the stated pH; 1/200 anti-human IgG(H+L)-PE; drawn table, secondary antibody control not subtracted
[11] = target: membrane-bound human FcγRIIB on Raji cells (human) (UniProt P31994); experiment: FACS on Raji cells (FcγRIIB) with constant aggregated Beriglobin and no CSA; detected with anti-human IgG(H+L)-PE; secondary antibody alone (SM101_sek AK.fcs) has median 137
[12] = target: membrane-bound human FcγRIIB on Raji cells (human) (UniProt P31994); experiment: FACS: 0.1E6 Raji cells (FcγRIIB) with 2.5 µg aggregated Beriglobin at the stated pH; 1/200 anti-human IgG(H+L)-PE; drawn table, secondary antibody control not subtracted; pH 6.5
[13] = target: membrane-bound human FcγRIIB on Raji cells (human) (UniProt P31994); experiment: FACS: 0.1E6 Raji cells (FcγRIIB) with 2.5 µg aggregated Beriglobin at the stated pH; 1/200 anti-human IgG(H+L)-PE; drawn table, secondary antibody control not subtracted; pH 7.2

UniProt P31994, sequence (P31994 43-310): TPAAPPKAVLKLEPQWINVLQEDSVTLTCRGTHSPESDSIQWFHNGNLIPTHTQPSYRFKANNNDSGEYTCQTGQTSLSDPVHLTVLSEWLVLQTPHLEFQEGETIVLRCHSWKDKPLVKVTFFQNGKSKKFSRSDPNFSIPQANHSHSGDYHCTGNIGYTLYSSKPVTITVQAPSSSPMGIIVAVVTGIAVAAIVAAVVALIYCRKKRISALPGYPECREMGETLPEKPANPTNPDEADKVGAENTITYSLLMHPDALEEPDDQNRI

Work on “aggregated human IgG (aggregated Beriglobin, aggregated fraction isolated by size exclusion chromatography) (antibody)” yielded a Median Signal [1] of 281, a Median Signal [2] of 5310 and a Median Signal [3] of 1780. It also gave a Median MFI (mean) [4] of 1110, a Median Signal [5] of 362 and a Median Signal [6] of 5230. It also gave a percent of gated viable cells in the upper right quadrant of the dot plot (PE-A above about 10^3) [7] of 84.7, a Median MFI at pH 7.0 (left panel) [8] of 599 and a Median MFI at pH 7.8 (left panel) [8] of 363. It also gave a Median MFI at pH 8.0 (left panel) [8] of 348, a Median MFI at pH 6.7 (left panel) [9] of 578 and a Median MFI at pH 7 [10] of 599. The Median MFI at pH 7.8 [10] was 363, the Median MFI at pH 8 [10] was 348 and the Median MFI at pH 8.5 [10] was 246. The Median MFI at pH 9 [10] was 244, the Median MFI at pH 10 [10] was 177 and the Median PE-A fluorescence, 0 µg/µL CSA [11] was 3480. For the same substance, the Median MFI at pH 6.5 [12] was 703 and the Median MFI at pH 7.2 [13] was 561.
